From US20130171070A1 (Genentech, published 2013)

What follows are binders tested against T1, Human factor D (Advanced Research Inc) (human, UniProt P00746 26-253) (assay: SPR (BIAcore), human factor D amine-coupled to CM5 chip, Fab as analyte, 1:1 model, global fit).
T1 construct: Amine-coupled directly to a CM5 chip for BIAcore; also called factor D antigen
Experimental: Immobilization—Human factor D (Advanced Research Inc, 0.1 mg/ml) was directly immobilized onto the CM5 chip (BiaCore) using amine-coupling method. The procedure is briefly described as following: (1) Constant flow (PBS) is at 5 μl/min, (2) Injection of 35 μl EDC/NHS (1:1). (3) Injection of 35 μl of human factor D in acetate buffer, pH 4.5. (4) Block the activated group by injection of 35 μl etholamine. (5) Clean-up the surface by 5 μl 10 mM Glycine pH 1.5.
Kinetic analysis—All anti-human factor D Fabs were diluted in PBS buffer. Each sample was prepared in a series of concentrations: 12.5 nM, 25 nM. 50 nM, 75 nM, 100 nM, 125 nM, and 150 nM, with 40 μl injection pulse at high acquisition rate. Regeneration was accomplished by applying 5 μl pulse of 10 mM Glycine at pH 1.5. Kinetic parameters were obtained by fitting Fabs binding traces to 1:1 binding model under pseudo-first order kinetic using BIAvaluation version 3.0. All data are obtained by global fitting routine.

T1 sequence (P00746 26-253 limits assumed): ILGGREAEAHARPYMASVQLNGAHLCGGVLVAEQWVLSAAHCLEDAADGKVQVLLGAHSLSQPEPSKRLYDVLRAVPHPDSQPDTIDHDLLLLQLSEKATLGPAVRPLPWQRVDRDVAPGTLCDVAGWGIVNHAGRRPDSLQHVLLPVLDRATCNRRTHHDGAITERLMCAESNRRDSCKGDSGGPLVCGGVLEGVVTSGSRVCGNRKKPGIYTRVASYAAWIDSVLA

| Binder | Kd [nM] | koff [s⁻¹] | kon [M⁻¹ s⁻¹] |
| --- | --- | --- | --- |
| humanized anti-Factor D Fab clone #250 (Fab, V domains shown) VH: QVQLVQSGPELKKPGASVKVSCKASGYTFTNYGLNWVRQAPGQGLEWMGWINTYTGETTYADDFKGRFVFSLDTSVSTAYLQISSLKAEDTAVYYCEREGGVNNWGQGTLVTVSS VL: DIQVTQSPSSLSASVGDRVTITCITSTDIDDDMNWYQQKPGKVPKLLISHGNTLRPGVPSRFSGSGSGTDFTLTISSLQPEDVATYYCLQSDSLPYTFGQGTKLEIK | 0.33 | 0.00019 | 570000 |
| humanized anti-Factor D Fab clone #416 (Fab, V domains shown) VH: QVQLVQSGPELKKPGASVKVSCKASGYTFTSYGMNWVRQAPGQGLEWMGWINTYTGETTYADDFKGRFVFSLDTSVSTAYLQISSLKAEDTAVYYCEREGGVNNWGQGTLVTVSS VL: DIQVTQSPSSLSASVGDRVTITCITSTDIDDDMNWYQQKPGKVPKLLISDGNTLRPGVPSRFSGSGSGTDFTLTISSLQPEDVATYYCLQSDSLPYTFGQGTKLEIK | 0.33 | 0.00018 | 820000 |
| humanized anti-Factor D Fab clone #56 (Fab, V domains shown) VH: QVQLVQSGPELKKPGASVKVSCKASGYTFTNYGMNWVKQAPGQGLEWMGWINTYTGETTYADDFKGRFVFSLDTSVSTAYLQISSLKAEDTATYYCEREGGVDNWGQGTLVTVSS VL: DIQVTQSPSSLSASVRDRVTITCITSTDIDDDMNWYQQKPGKVPKLLISGGNTLRPGVPSRFSGSGSGTDFTLTISSLQPEDVATYYCLQSDNLPYTFGQGTKLEIK | 2.7 | 0.00098 | 360000 |
| chimeric 166-32 Fab (Fab, V domains shown, Tested as a Fab; also called chimeric Fab) VH: QIQLVQSGPELKKPGETVKISCKASGYTFTNYGMNWVKQAPGKGLKWMGWINTYTGETTYADDFKGRFVFSLETSASTAYLEINNLKNEDMATYFCEREGGVDNWGQGTTLTVSS VL: ETTVTQSPASLSMAIGEKVTIRCITSTDIDDDMNWYQQKPGEPPKLLISGGNTLRPGVPSRFSSSGYGADFVFTIDNMLSEDVADYYCLQSDNLPYTFGGGTRLEIK | 2.7 | 0.0012 | 440000 |
